B1: SEQ ID NO 124 (designed binder)
chain: MLPAPKNLVVSRVTEDSARLSWTAPDAAFDSFSIDYPEFPVRGEAIVLTVPGSERSYDLTGLKPGTEYAVTIWGVKGGFTSQPLSAIFTT
B2: SEQ ID NO 99 (designed binder)
chain: MLPAPKNLVVSRVTEDSARLSWTAPDAAFDSFGIQYNEFVFRGEAIVLTVPGSERSYDLTGLKPGTEYFVPISGVKGGDDSRPLSAIFTT
B3: SEQ ID NO 107 (designed binder)
chain: B2 chain with G33F, N37T, F39S, V40H, F41W, R42V, F69A, S73E, D80S, R82T
B4: SEQ ID NO 102 (designed binder)
chain: MLPAPKNLVVSRVTEDSARLSWTAPDAAFDSFSIDYDEPQPVGEAIVLTVPGSERSYDLTGLKPGTEYRVDIWGVKGGPTSGPLRATFTT
B5: SEQ ID NO 90 (designed binder)
chain: MLPAPKNLVVSRVTEDSARLSWTAPDAAFDSFTIHYWEFDPPGEAIVLTVPGSERSYDLTGLKPGTEYTVYIEGVKGGWWSKPLSAIFTT
B6: SEQ ID NO 98 (designed binder)
chain: B5 chain with V13I, T33D, H35P, W37G, P41T, P42I, T69D, W79H, W80L, K82W
B7: SEQ ID NO 118 (designed binder)
chain: B5 chain with T33R, H35L, W37G, F39V, P42W, T69D, Y71W, W79K, W80L, K82W
B8: SEQ ID NO 91 (designed binder)
chain: B5 chain with T33V, H35E, F39R, D40T, P41Q, T69D, Y71W, E73S, W79K, K82E
B9: SEQ ID NO 117 (designed binder)
chain: B5 chain with H35P, W37G, F39A, D40F, P41N, T69D, Y71F, W79T, W80L, K82W
B10: SEQ ID NO 115 (designed binder)
chain: MLPAPKNLVVSRVTEDSARLSWTAPDAAFDSFFIGYLEPQPPGEAIVLTVPGSERSYDLTGLKPGTEYNVTIQGVKGGFPSMPLSAIFTTT
B11: SEQ ID NO 97 (designed binder)
chain: MLPAPKNLVVSRVTEDSARLSWTAPDAAFDSFFISYFEGWASGEAIHLYVPGSERSYDLTGLKPGTEYSVHIQGVKGGQPSTPLSAIFTT
B12: SEQ ID NO 119 (designed binder)
chain: MLPAPKNLVVSRVTEDSARLSWTAPDAAFDSFHIEYEETPQKGEAIFLRVPGSERSYDLTGLKPGTEYVVNIRGVKGGDLSSPLGALFTT
B13: SEQ ID NO 95 (designed binder)
chain: MLPAPKNLVVSRVTEDSARLSWTAPDAAFDSFRISYYEWYDLGEAIVLTVPGSERSYDLTGLKPGTEYWVDIAGVKGGYYSYPLSAIFTT
B14: SEQ ID NO 106 (designed binder)
chain: MLPAPKNLVVSRVTEDSARLSWTAPDAAFDSFTIAYEEHGLVGEAIYLRVPGSERSYDLTGLKPGTEYHVGIMGVKGGVFSSPLSAIFTT
B15: SEQ ID NO 109 (designed binder)
chain: B14 chain with T33H, H39L, G40V, L41T, V42E, H69L, G71D, M73E, V79H, F80L
B16: SEQ ID NO 111 (designed binder)
chain: MLPAPKNLVVSRVTEDSARLSWTAPDAAFDSFWIYYYESVGTGEAIVLTVPGSERSYDLTGLKPGTEYFVDISGVKVGTYSLPLSAIFTT
B17: SEQ ID NO 122 (designed binder)
chain: MLPAPKNLVVSRVTEDSARLSWTAPDAAFDSFQIPYWEQSLGGEAIVLTVPGSERSYDLTGLKPGTEYEVWIEGVKGGDLSFPLSAISTT
B18: SEQ ID NO 88 (designed binder)
chain: MLPAPKNLVVSRVTEDSARLSWTAPDAAFDSFWIEYFEWTVGGEAIVLTVPGSERSYDLTGLKPGTEYYVSIYGVKGGWLSPPLSAIFTT
B19: SEQ ID NO 114 (designed binder)
chain: B18 chain with W33A, F37W, W39A, T40V, V41G, G42S, Y69H, S71Y, W79Y, P82L
B20: SEQ ID NO 103 (designed binder)
chain: B18 chain with P3L, W33A, W39Y, V41G, G42E, S71G, W79Y, P82R
B21: SEQ ID NO 125 (designed binder)
chain: B18 chain with W33V, W39F, T40V, V41G, G42E, Y69D, S71G, W79S, P82S
B22: SEQ ID NO 104 (designed binder)
chain: B18 chain with R12H, W33D, F37Y, W39L, T40V, V41G, G42S, S71A, W79Y, P82R
B23: SEQ ID NO 120 (designed binder)
chain: B13 chain with S35E, Y37I, Y40W, D41V, L42G, A73K, Y79K, Y80R
B24: SEQ ID NO 36 (designed binder)
chain: MLPAPKNLVVSRVTEDSARLSWTAPDAAFDSFTITYIEWWENGEAIALSVPGSERSYDLTGLKPGTEYQVGIAGVKGGYKSYPLWALFTT
B25: SEQ ID NO 37 (designed binder)
chain: MLPAPKNLVVSRVTEDSARLSWTAPDAAFDSFHIIYTEEEKEGEAIYLRVPGSERSYDLTGLKPGTEYLVEIEGVKGGKRSVPLNASFTT
B26: SEQ ID NO 35 (designed binder)
chain: MLPAPKNLVVSRVTEDSARLSWTAPDAAFDSFEIAYFEAIWNGEAIYLTVPGSERSYDLTGLKPGTEYQVEIRGVKGGPTSRPLFAWFTT
B27: SEQ ID NO 94 (designed binder)
chain: MLPAPKNLVVSRITEDSARLSWTAPDAAFDSFGIYYYEWWSTGEAIVLTVPGSERSYDLTGPKPGTEYYVKISGVKGGYRSYPLSAIFTT
B28: SEQ ID NO 39 (designed binder)
chain: B27 chain with I13V, G33D, Y35D, Y37R, S41T, T42L, P62L, K71N, S73Q, Y79L
B29: SEQ ID NO 110 (designed binder)
chain: MLPAPKNLVVSRVTEDSARLSWTAPDAAFDSFFIHYHEWWEAGEAIVLTVPGSERSYDLTGLKPGTEYLVDIPGVKGGDLSVPLSAIFTT
B30: SEQ ID NO 93 (designed binder)
chain: MLPAPKNLVVSRVTEDSARLSWTAPDAAFDSFYIGYLEPGDNGEAIVLTVPGSERSYDLTGLKPGTEYNVSIGGVKGGLGSYPLSAIFTT
B31: SEQ ID NO 38 (designed binder)
chain: MLPAPKNLVVSRVTEDSARLSWTAPDAAFDSFHIAYEESHTTGEAIFLRVPGSERSYDLTGLKPGTEYSVSIEGVKGGHYSPPLTAKFTT
B32: SEQ ID NO 113 (designed binder)
chain: MLPAPKNLVVSRVTEDSARLSWTAPDAAFDSFDIHYKEHSWWGEAIVLTVPGSERSYDLTGLKPGTEYIVPIPGVKGGGISRPLSAIFTT
B33: SEQ ID NO 105 (designed binder)
chain: MLPAPKNLVVSRVTEDSARLSWTAPDAAFDSFGIAYYERSGAGEAIVLTVPGSERSYDLTGLKPGTEYMVYINGVKGGFVSSPLSAIFTT
B34: SEQ ID NO 85 (designed binder)
chain: MLPAPKNLVVSRVTEDSARLSWTAPDAAFDSFFIWYWEKSVDGEAIVLTVPGSERSYDLTGLKPGTEYNVGIQGVKGGTPSDPLSAIFTT
B35: SEQ ID NO 86 (designed binder)
chain: B34 chain with F33I, W37A, K39W, S40V, V41N, N69R, G71E, Q73T, P80W, D82R
B36: SEQ ID NO 121 (designed binder)
chain: B1 chain with L62P, A69N, W73Q, T80P, Q82M
B37: SEQ ID NO 100 (designed binder)
chain: B34 chain with F33W, W35E, K39V, S40V, V41G, D42F, N69W, Q73Y, T79N, D82V
B38: SEQ ID NO 84 (designed binder)
chain: MLPAPKNLVVSRVTEDSARLSWTAPDAAFDSFPIYYWEVFPAGEAIELDVPGSERSYDLTGLKPGTEYFVRIEGVKGGASSYPLRAEFTT
B39: SEQ ID NO 126 (designed binder)
chain: MLPAPKNLVVSRVTEDSARLSWTAPDAAFDSFSIDYLELGESGEAIVLTVPGSERSYDLTGLKPGTEYWVYIFGVKGGYPSAPLSAIFTT
B40: SEQ ID NO 101 (designed binder)
chain: MLPAPKNLVVSRVTEDSARLSWTAPDAAFDSFAIDYDEPINSGEAIVLTVPGSERSYDLTGPKPGTEYEVEIYGVKGGYLSRPLSAIFTT

Positions count from the first letter of the chain named.

The assay deals with human serum albumin (human) (UniProt P02768). Put plainly: screening ELISA. (In an ELISA, binding on a coated surface is turned into a signal by an enzyme label.)
Sequence of human serum albumin (human) (P02768 25-609 limits assumed): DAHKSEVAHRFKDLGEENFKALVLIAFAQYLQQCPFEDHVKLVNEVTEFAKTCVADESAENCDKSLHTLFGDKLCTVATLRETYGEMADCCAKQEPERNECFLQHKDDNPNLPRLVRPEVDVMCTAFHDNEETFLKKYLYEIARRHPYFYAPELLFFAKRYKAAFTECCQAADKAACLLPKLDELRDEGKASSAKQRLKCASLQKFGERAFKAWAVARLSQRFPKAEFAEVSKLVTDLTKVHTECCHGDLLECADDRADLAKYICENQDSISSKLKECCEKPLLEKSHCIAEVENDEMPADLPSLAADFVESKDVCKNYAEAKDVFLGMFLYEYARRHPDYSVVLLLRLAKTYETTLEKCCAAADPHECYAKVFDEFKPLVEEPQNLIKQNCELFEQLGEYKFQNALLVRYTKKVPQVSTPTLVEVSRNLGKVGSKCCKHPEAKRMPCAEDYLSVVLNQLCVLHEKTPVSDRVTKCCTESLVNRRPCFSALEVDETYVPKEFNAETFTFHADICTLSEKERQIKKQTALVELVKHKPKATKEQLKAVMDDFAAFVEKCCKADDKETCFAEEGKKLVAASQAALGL
In turn, B1 yielded an HSA of 3450.

B2 had an HSA of 8150.

B3 showed an HSA of 4050.

B4: the HSA was found to be 13400.

Regarding B5, the HSA was 2550.

B6 returned an HSA of 15500.

The molecule B7 registered an HSA of 18800.

Take B8: the HSA was 1800.

Molecule B9 yielded an HSA of 23500.

For B10, the HSA was determined as 3450.

In turn, B11 showed an HSA of 2200.

Molecule B12 registered an HSA of 1850.

Molecule B13 displayed an HSA of 1900.

For the molecule B14, the HSA came out at 1200.

With B15, the HSA was 1250.

B16: the HSA worked out at 7450.

In turn, B17 gave an HSA of 29600.

B18 gave an HSA of 6000.

The molecule B19 showed an HSA of 4200.

B20: the HSA turned out to be 1200.

Molecule B21 displayed an HSA of 1050.

Turning to B22, the HSA was 1700.

For the molecule B23, the HSA amounted to 1850.

Molecule B24 gave an HSA of 6160.

B25 had an HSA of 2720.

The molecule B26 gave an HSA of 1520.

The molecule B27 showed an HSA of 9900.

In the case of B28, the HSA came out at 4160.

Take B29: the HSA worked out at 18800.

With B30, the HSA amounted to 1650.

The molecule B31 showed an HSA of 4160.

Take B32: the HSA was determined as 22600.

B33: the HSA turned out to be 1400.

B34 displayed an HSA of 2500.

Regarding B35, the HSA was found to be 2250.

Take B36: the HSA amounted to 28600.

For the molecule B37, the HSA was 2350.

B38 had an HSA of 3850.

In turn, B39 had an HSA of 1750.

The molecule B40 came in with an HSA of 9100.
